Measured values published in patent US20240317834A1, “COMPOSITIONS AND METHODS FOR NEUROLOGICAL DISEASES” (CODA BIOTHERAPEUTICS, INC., priority 2020, published 2024).
Numbering of substitutions follows the chain as printed. Names may count otherwise.

Test system: Lenti-X 293T cells
Assay: YFP fluorescence quenching anion reporter plate reader assay of engineered receptors stimulated with acetylcholine or a non-native ligand
Type: cell-based
Settings: for percent quench of YFP fluorescence, 30 nM TC-6683: TC-6683 30 nM; for percent quench of YFP fluorescence, 300 nM TC-6683: TC-6683 300 nM; for percent quench of YFP fluorescence, 3 uM TC-6683: TC-6683 3 uM; for percent quench of YFP fluorescence, 30 uM TC-6683: TC-6683 30 uM; for percent quench of YFP fluorescence, 100 uM TC-6683: TC-6683 100 uM; for percent quench of YFP fluorescence, 10 uM ach: acetylcholine 10 uM; for percent quench of YFP fluorescence, 100 uM ach: acetylcholine 100 uM; for percent quench of YFP fluorescence, 1 mM ach: acetylcholine 1 mM; for percent quench of YFP fluorescence, 3 mM ach: acetylcholine 3 mM
In short: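 YFP quench was followed for about 1 min 43 s after ligand delivered in iodide-based ECS, pH 7.2. Values are end-of-read fluorescence (last 10 s) divided by the pre-ligand baseline (15 s). Cells were LX293T, transfected with receptor DNA a day before the assay.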

B1: CODA534: engineered chimeric LGIC receptor, L131S, S172D in SEQ ID NO: 33 (protein)
chain: MRCSPGGVWLALAASLLHVSLQGEFQRKLYKELVKNYNPLERPVANDSQPLTVYFSLSLLQIMDVDEKNQVLTTNIWLQMSWTDHYLQWNVSEYPGVKTVRFPDGQIWKPDILLYNSADERFDATFHTNVSVNSSGHCQYLPPGIFKSSCPMDLKNFPMDVQTCKLKFGSWDYGGWSLDLQMQEADISGYIPNGEWDLVGIPGKRSERFYECCKEPYPDVTFTVTMRRRMGYYLIQMYIPSLLIVILSWISFWINMDAAPARVGLGITTVLTMTTQSSGSRASLPKVSYVKAIDIWMAVCLLFVFSALLEYAAVNFVSRQHKELLRFRRKRRHHKSPMLNLFQEDEAGEGRFNFSAYGMGPACLQAKDGISVKGANNSNTTNPPPAPSKSPEEMRKLFIQRAKKIDKISRIGFPMAFLIFNMFYWIIYKIVRREDVHNQ
modifications: synthetic sequence of chimeric LGIC
YFP fluorescence quenching using CNL001 (1 nM CNL001, first column): 23.438%
YFP fluorescence quenching using CNL001 (1 nM CNL001, second column): 28.59%
YFP fluorescence quenching using TC-5619/Bradanicline (1 nM brd): −1.13%
YFP fluorescence quenching using TC-5619/Bradanicline (3 nM brd): −3.83%
YFP fluorescence quenching using CNL001 (10 nM CNL001, first column): 56.882%
YFP fluorescence quenching using CNL001 (10 nM CNL001, second column): 56.777%
YFP fluorescence quenching using TC-5619/Bradanicline (10 nM brd): −3.78%
YFP fluorescence quenching using Facinicline (30 nM fac): −23.44
YFP fluorescence quenching using CNL001 (50 nM CNL001, first column): 65.044%
YFP fluorescence quenching using CNL001 (50 nM CNL001, second column): 67.373%
YFP fluorescence quenching using ABT-126 (50 nM abt): −11.96%
YFP fluorescence quenching using CNL001 (100 nM CNL001, first column): 68.666%
YFP fluorescence quenching using CNL001 (100 nM CNL001, second column): 70.357%
YFP fluorescence quenching using CNL002 (100 nM CNL002): 14.26%
YFP fluorescence quenching using ABT-126 (100 nM abt): −10.72%
YFP fluorescence quenching using AZD-0328 (100 nM azd0328): −9.32%
YFP fluorescence quenching using TC-5619/Bradanicline (100 nM brd): −2.03%
YFP fluorescence quenching using ABT-126 (300 nM abt): 11.65%
YFP fluorescence quenching using AZD-0328 (300 nM azd0328): 4.94%
YFP fluorescence quenching using Facinicline (300 nM fac): 2.75
YFP fluorescence quenching using CNL001 (1 uM CNL001, first column): 73.019%
YFP fluorescence quenching using CNL001 (1 uM CNL001, second column): 73.527%
YFP fluorescence quenching using CNL002 (1 uM CNL002): 45.55%
YFP fluorescence quenching using ABT-126 (1 uM abt): −3.06%
YFP fluorescence quenching using TC-5619/Bradanicline (1 uM brd): 1.68%
YFP fluorescence quenching using TC-6987 (1 uM tc6987): −20.99
YFP fluorescence quenching using Facinicline (10 uM fac): 69.71
YFP fluorescence quenching using TC-6987 (10 uM tc6987): −27.62
YFP fluorescence quenching using CNL002 (30 uM CNL002): 64.93%
YFP fluorescence quenching using AZD-0328 (30 uM azd0328): 60.61%
YFP fluorescence quenching using Facinicline (30 uM fac): 61.44
YFP fluorescence quenching using TC-6987 (500 uM tc6987): −24.22
percent quench of YFP fluorescence, 30 nM TC-6683: −22.464%
percent quench of YFP fluorescence, 300 nM TC-6683: −23.976%
percent quench of YFP fluorescence, 3 uM TC-6683: −24.897%
percent quench of YFP fluorescence, 30 uM TC-6683: −20.474%
percent quench of YFP fluorescence, 100 uM TC-6683: −22.253%
percent quench of YFP fluorescence, 10 uM ach: −11.3%
percent quench of YFP fluorescence, 100 uM ach: −27.53%
percent quench of YFP fluorescence, 1 mM ach: 2.84%
percent quench of YFP fluorescence, 3 mM ach: 14.65%

B2: CODA807: engineered chimeric LGIC receptor, Y115D, L131E in SEQ ID NO: 33 (protein)
chain: B1 chain with Y115D, S131E, D172S
modifications: synthetic sequence of chimeric LGIC
YFP fluorescence quenching using CNL001 (1 nM CNL001, first column): 0.885%
YFP fluorescence quenching using CNL001 (1 nM CNL001, second column): −1.707%
YFP fluorescence quenching using TC-5619/Bradanicline (1 nM brd): −1.52%
YFP fluorescence quenching using TC-5619/Bradanicline (3 nM brd): −5.35%
YFP fluorescence quenching using CNL001 (10 nM CNL001, first column): −0.567%
YFP fluorescence quenching using CNL001 (10 nM CNL001, second column): 0.043%
YFP fluorescence quenching using TC-5619/Bradanicline (10 nM brd): −3.49%
YFP fluorescence quenching using TC-5619/Bradanicline (30 nM brd): −2.16%
YFP fluorescence quenching using Facinicline (30 nM fac): 45.76
YFP fluorescence quenching using CNL001 (50 nM CNL001, first column): 5.141%
YFP fluorescence quenching using CNL001 (50 nM CNL001, second column): 9.409%
YFP fluorescence quenching using ABT-126 (50 nM abt): −1.68%
YFP fluorescence quenching using CNL001 (100 nM CNL001, first column): 9.796%
YFP fluorescence quenching using CNL001 (100 nM CNL001, second column): 11.009%
YFP fluorescence quenching using CNL002 (100 nM CNL002): −5.71%
YFP fluorescence quenching using ABT-126 (100 nM abt): −2.25%
YFP fluorescence quenching using AZD-0328 (100 nM azd0328): 24.49%
YFP fluorescence quenching using TC-5619/Bradanicline (100 nM brd): 4.18%
YFP fluorescence quenching using Facinicline (100 nM fac): 63.92
YFP fluorescence quenching using ABT-126 (300 nM abt): −2.37%
YFP fluorescence quenching using AZD-0328 (300 nM azd0328): 45.34%
YFP fluorescence quenching using TC-5619/Bradanicline (300 nM brd): 70.2%
YFP fluorescence quenching using Facinicline (300 nM fac): 79.43
YFP fluorescence quenching using CNL001 (1 uM CNL001, first column): 27.914%
YFP fluorescence quenching using CNL001 (1 uM CNL001, second column): 29.109%
YFP fluorescence quenching using CNL002 (1 uM CNL002): 13.03%
YFP fluorescence quenching using ABT-126 (1 uM abt): 3.68%
YFP fluorescence quenching using TC-5619/Bradanicline (1 uM brd): 43.11%
YFP fluorescence quenching using TC-6987 (1 uM tc6987): 36.07
YFP fluorescence quenching using Facinicline (10 uM fac): 80.1
YFP fluorescence quenching using TC-6987 (10 uM tc6987): 31.35
YFP fluorescence quenching using CNL002 (30 uM CNL002): 25.2%
YFP fluorescence quenching using AZD-0328 (30 uM azd0328): 71.21%
YFP fluorescence quenching using Facinicline (30 uM fac): 84.91
YFP fluorescence quenching using TC-6987 (500 uM tc6987): 28.18
percent quench of YFP fluorescence, 30 nM TC-6683: −26.801%
percent quench of YFP fluorescence, 300 nM TC-6683: −25.363%
percent quench of YFP fluorescence, 3 uM TC-6683: −23.651%
percent quench of YFP fluorescence, 30 uM TC-6683: −26.235%
percent quench of YFP fluorescence, 100 uM TC-6683: −24.182%
percent quench of YFP fluorescence, 10 uM ach: 15.45%
percent quench of YFP fluorescence, 100 uM ach: 13.77%
percent quench of YFP fluorescence, 1 mM ach: 27.42%
percent quench of YFP fluorescence, 3 mM ach: 53.62%
